Article PMC6459841, “Structural analyses of NudT16–ADP-ribose complexes direct rational design of mutants with improved processing of poly(ADP-ribosyl)ated proteins” (Scientific Reports, 2019)

B1: Homo sapiens NudT16 (HsNudT16) (enzyme, human)
chain: MAGARRLELGEALALGSGWRHVCHALLYAPDPGMLFGRIPLRYAILMQMRFDGRLGFPGGFVDTQDRSLEDGLNRELREELGEAAAAFRVERTDYRSSHVGSGPRVVAHFYAKRLTLEELLAVEAGATRAKDHGLEVLGLVRVPLYTLRDGVGGLPTFLENSFIGSAREQLLEALQDLGLLQSGSISGLKIPAHH
notes: carries A22V as in the Mammalian Gene Collection clone BC031215; subcloned in pNIC28-BSA4; Dimer in solution (SEC) and in the crystal; also called wild-type HsNudT16; native HsNudT16; source: E. coli CodonPlus RIPL, purified (Ni-NTA, TEV cleavage, anion exchange, SEC); not shown: His6, N-terminal, cleaved
B2: HsNudT16 H24W (enzyme, human)
chain: MAGARRLELGEALALGSGWRHVCWALLYAPDPGMLFGRIPLRYAILMQMRFDGRLGFPGGFVDTQDRSLEDGLNRELREELGEAAAAFRVERTDYRSSHVGSGPRVVAHFYAKRLTLEELLAVEAGATRAKDHGLEVLGLVRVPLYTLRDGVGGLPTFLENSFIGSAREQLLEALQDLGLLQSGSISGLKIPAHH
notes: also called H24W mutant; source: E. coli CodonPlus RIPL, purified (Ni-NTA, TEV cleavage, anion exchange, SEC); not shown: His6, N-terminal, cleaved
B3: HsNudT16 F61S (enzyme, human)
chain: MAGARRLELGEALALGSGWRHVCHALLYAPDPGMLFGRIPLRYAILMQMRFDGRLGFPGGSVDTQDRSLEDGLNRELREELGEAAAAFRVERTDYRSSHVGSGPRVVAHFYAKRLTLEELLAVEAGATRAKDHGLEVLGLVRVPLYTLRDGVGGLPTFLENSFIGSAREQLLEALQDLGLLQSGSISGLKIPAHH
notes: also called F61S mutant; source: E. coli CodonPlus RIPL, purified (Ni-NTA, TEV cleavage, anion exchange, SEC); not shown: His6, N-terminal, cleaved

Target: the molecule itself
Assay: SEC; Superdex 75 10/300; 100 µL of each purified protein loaded at 0.3 mL/min, eluted over one column volume; Bio-Rad size standards; dimer to monomers

Stoichiometry N, 2:
B1, B2, B3
